# Patent US20050180952A1, “Methods for intradermal delivery of therapeutics agents” (priority 2003, published 2005)
# Tested on: B16F10 melanoma cells
# Test: Effects of ID and IP delivery on antitumor activity of IL-12 (10 and 100 ng), tumor size
# Format: in vivo, C57BL Mice
# Settings: for tumor size increase: by day 21
# Description: C57BL Mice were inoculated subcutaneously (SC) with 1 million B16F10 melanoma cells (ATCC, Inc.). Treatment was initiated with IL-12 injections 7 days post-inoculation at two levels (10 and 100 ng) given as either an intraperitoneal (IP) or intradermal (ID) (tumor bearing side) dose. IL-12 doses were repeated every other day for a total of 4 treatments. As a control, the same volume of complete medium (PBS) was injected ID on the tumor bearing side. True negatives were also run in conjunction for serum and tissue samples (n=15/condition). Weights and tumor size were measured on days 7, 11, 14, 18 and 21. Blood samples were also collected at weekly intervals for IL-12 analysis. Two tumor diameters at right angles were measured with digital calipers, and the average tumor size was plotted with respect to days post inoculation with tumor cells.
molecule,measurement,setting,value
"IL-12: rmIL-12 (R&D Systems), interleukin-12 cytokine given in PBS solution (protein, UniProt P43431 23-215; P43432 23-335, looked up) Interleukin-12 subunit alpha: RVIPVSGPARCLSQSRNLLKTTDDMVKTAREKLKHYSCTAEDIDHEDITRDQTSTLKTCLPLELHKNESCLATRETSSTTRGSCLPPQKTSLMMTLCLGSIYEDLKMYQTEFQAINAALQNHNHQQIILDKGMLVAIDELMQSLNHNGETLRQKPPVGEADPYRVKMKLCILLHAFSTRVVTINRVMGYLSSA Interleukin-12 subunit beta: MWELEKDVYVVEVDWTPDAPGETVNLTCDTPEEDDITWTSDQRHGVIGSGKTLTITVKEFLDAGQYTCHKGGETLSHSHLLLHKKENGIWSTEILKNFKNKTFLKCEAPNYSGRFTCSWLVQRNMDLKFNIKSSSSSPDSRAVTCGMASLSAEKVTLDQRDYEKYSVSCQEDVTCPTAEETLPIELALEARQQNKYENYSTSFFIRDIIKPDPPKNLQMKPLKNSQVEVSWEYPDSWSTPHSYFSLKFFVRIQRKKEKMKETEEGCNQKGAFLVEKTSTEVQCKGGNVCVQAQDRYYNSSCSKWACVPCRVRS",average tumor size,"10 ng, ID, Day 11",77 mm^2
same,average tumor size,"10 ng, ID, Day 14",120 mm^2
same,tumor size increase from the previous measurement,"10 ng, ID, Day 14",56%
same,average tumor size,"10 ng, ID, Day 18",112 mm^2
same,tumor size decrease from the previous measurement,"10 ng, ID, Day 18",6%
same,average tumor size,"10 ng, ID, Day 21",250 mm^2
same,tumor size increase from the previous measurement,"10 ng, ID, Day 21",121%
same,average tumor size,"10 ng, IP, Day 11",68 mm^2
same,average tumor size,"10 ng, IP, Day 14",113 mm^2
same,tumor size increase from the previous measurement,"10 ng, IP, Day 14",63%
same,average tumor size,"10 ng, IP, Day 18",206 mm^2
same,tumor size increase from the previous measurement,"10 ng, IP, Day 18",82%
same,average tumor size,"10 ng, IP, Day 21",262 mm^2
same,tumor size increase from the previous measurement,"10 ng, IP, Day 21",27%
same,final average ID tumor size smaller than IP,"100 ng, Day 21",47%
same,average tumor size,"100 ng, ID, Day 11",54 mm^2
same,average tumor size,"100 ng, ID, Day 14",75 nm^2
same,tumor size increase from the previous measurement,"100 ng, ID, Day 14",39%
same,average tumor size,"100 ng, ID, Day 21",142 mm^2
same,tumor size increase,"100 ng, ID",89%
same,average tumor size,"100 ng, IP, Day 11",70 mm^2
same,average tumor size,"100 ng, IP, Day 14",126 mm^2
same,tumor size increase from the previous measurement,"100 ng, IP, Day 14",80%
same,average tumor size,"100 ng, IP, Day 21",302 mm^2
same,tumor size increase,"100 ng, IP",139%
